As a reminder, the Kd is the concentration at which binding is half-saturated. A higher Kd goes with weaker binding.

This passage reports Kd results from PMC9696605 (Viruses, 2022).

Where no end group is shown, it is not given here. [ ]: non-standard residue; d: D form. pT = C[C@@H](OP(=O)(O)O)[C@H](N)C(=O)O

Experiment [1] concerns the target T1, SH3 domain of human Fyn (Fyn-SH3), 15N-labelled (human, UniProt P06241 82-142).
T1 construct: also called 15N-Fyn-SH3
Kind of experiment: NMR titration. The settings on record: both partners purified.

Experiment [2] has as its target human neural precursor cell expressed developmentally down-regulated protein 4-like WW3* domain (hNedd4L-WW3*) (human, UniProt Q96PU5 497-530). Kind of experiment: ITC. The settings on record: both partners purified.

T1 sequence (P06241 82-142): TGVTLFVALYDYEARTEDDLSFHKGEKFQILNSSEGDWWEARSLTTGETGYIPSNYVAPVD
human neural precursor cell expressed developmentally down-regulated protein 4-like WW3* domain (hNedd4L-WW3*), sequence (Q96PU5 497-530): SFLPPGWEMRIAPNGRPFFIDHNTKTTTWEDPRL

B1: pU24-6B(1-15), U24-6B peptide with phospho-threonine 6 (peptide)
peptide: MDRPR[pT]PPPSYSEVL
notes: source: synthetic peptide, bought: Genscript
B1: the Kd in experiment [1] is at least 5000 µM.

B2: U24-6B(1-15), 15-residue peptide of the N-terminal region of U24 from HHV-6B (peptide)
peptide: MDRPRTPPPSYSEVL
notes: source: synthetic peptide (Fmoc solid phase, C18 HPLC purified)
With B2, the Kd worked out at 500 ± 200 µM in experiment [1] and 8.9 µM in experiment [2].

B3: U24-6A(1-15), 15-residue peptide of the N-terminal region of U24 from HHV-6A (peptide)
peptide: MDPPRTPPPSYSEVL
notes: as for B2
In the case of B3, the Kd in experiment [2] was found to be 8.5 µM.

B4: pU24-6A(1-15), U24-6A peptide with phospho-threonine 6 (peptide)
peptide: MDPPR[pT]PPPSYSEVL
notes: as for B1
Regarding B4, the Kd in experiment [1] is at least 12000 µM.
